The target in experiment [1] is TMR-Mud peptide (Mud residues 1955-1970 with an NH2-terminal cysteine, labelled with tetramethylrhodamine) (Drosophila). The experiment can be described thus: fluorescence polarisation; fluorescence anisotropy, direct titration: constant 100 nM TMR-Mud, increasing ligand, binding buffer, 20°C, fit to 1:1 binding.
Experiment [2] deals with T1, Pins TPR (residues 42-398), soluble (Drosophila, UniProt Q9VB22 42-398).
T1 construct: Partner of Inscuteable (Pins), Drosophila, residues 42-398, the TPR domain; it may be a hexahistidine fusion (pBH vector); also called Pins TPRs; source: E. coli BL21(DE3), purified
T1 sequence (looked up): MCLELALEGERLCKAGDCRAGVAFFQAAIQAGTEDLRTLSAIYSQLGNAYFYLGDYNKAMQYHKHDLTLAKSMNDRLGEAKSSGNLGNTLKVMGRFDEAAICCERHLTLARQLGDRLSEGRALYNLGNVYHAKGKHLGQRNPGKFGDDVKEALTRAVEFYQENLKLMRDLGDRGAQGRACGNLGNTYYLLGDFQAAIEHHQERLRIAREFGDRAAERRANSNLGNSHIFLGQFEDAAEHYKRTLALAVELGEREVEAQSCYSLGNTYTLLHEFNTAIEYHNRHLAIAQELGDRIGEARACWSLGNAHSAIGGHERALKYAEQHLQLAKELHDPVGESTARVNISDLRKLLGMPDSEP
The experiment in a line: fluorescence polarisation; fluorescence anisotropy, competition: Inscuteable added to a pre-formed complex of 100 nM TMR-Mud and 1 uM Pins, binding buffer, 20°C. The settings on record: both partners purified.

B1: Pins TPR (residues 42-398), soluble (domain or fragment)
chain: MCLELALEGERLCKAGDCRAGVAFFQAAIQAGTEDLRTLSAIYSQLGNAYFYLGDYNKAMQYHKHDLTLAKSMNDRLGEAKSSGNLGNTLKVMGRFDEAAICCERHLTLARQLGDRLSEGRALYNLGNVYHAKGKHLGQRNPGKFGDDVKEALTRAVEFYQENLKLMRDLGDRGAQGRACGNLGNTYYLLGDFQAAIEHHQERLRIAREFGDRAAERRANSNLGNSHIFLGQFEDAAEHYKRTLALAVELGEREVEAQSCYSLGNTYTLLHEFNTAIEYHNRHLAIAQELGDRIGEARACWSLGNAHSAIGGHERALKYAEQHLQLAKELHDPVGESTARVNISDLRKLLGMPDSEP
In experiment [1], B1 displayed a Kd of 1.1 µM.

B2: MBP-fusion of the central Ankyrin-repeat containing domain of Inscuteable (residues 252-600) (domain or fragment, Drosophila, UniProt Q24367 252-600, looked up)
chain: APPPYNNETVTFGATEQDESLQQQPSPLRVRSLRFTASTSTPKSGSKIAKRGKKHPEPVASWMSEQRWAGEPEVMCTLQHKSIAQEAYKNYTITTSAVCKLVRQLQQQALSLQVHFERSERVLSGLQASSLPEALAGATQLLSHLDDFTATLERRGVFFNDAKIERRRYEQHLEQIRTVSKDTRYSLERQHYINLESLLDDVQLLKRHTLITLRLIFERLVRVLVISIEQSQCDLLLRANINMVATLMNIDYDGFRSLSDAFVQNEAVRTLLVVVLDHKQSSVRALALRALATLCCAPQAINQLGSCGGIEIVRDILQVESAGERGAIERREAVSLLAQITAAWHGSEH
notes: Inscuteable (Insc), Drosophila, residues 252-600, including the central Ankyrin-repeat containing region; pMAL-c2 based vector; also called MBP-Insc; source: E. coli BL21(DE3), purified (amylose resin)
For B2, binding in experiment [2] was characterised by a dissociation constant (Kd) of 5 µM.
